No end group written: not given here.
Biological target: T1, hCPA4 (Homo sapiens, UniProt Q9UI42)
T1 sequence (Q9UI42 114-421): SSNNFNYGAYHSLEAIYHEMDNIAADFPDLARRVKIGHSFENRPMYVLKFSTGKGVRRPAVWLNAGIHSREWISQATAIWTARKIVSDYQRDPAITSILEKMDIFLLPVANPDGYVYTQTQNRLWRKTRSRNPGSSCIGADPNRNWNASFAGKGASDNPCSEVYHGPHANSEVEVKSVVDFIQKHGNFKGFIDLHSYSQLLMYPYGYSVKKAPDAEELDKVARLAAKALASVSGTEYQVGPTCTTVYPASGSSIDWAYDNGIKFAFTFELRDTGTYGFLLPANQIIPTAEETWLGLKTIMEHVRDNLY
Assay: Ki determination, tight-binding inhibition of metallocarboxypeptidase
Format: biochemical
Conditions: tight-binding equation fit, equilibrium conditions; substrate AAFP 0.1mM, 20mM Tris-HCl pH 7.5, 500mM NaCl; preincubation 15 min; 37 °C; means (n = 3) ± SD
Experimental: Inhibitory activities against CPA- and CPB-type forms (bovine and human variants of CPA1, CPA2, CPA4, CPB1, and TAFI) were assayed for all extracts, subject to the experimental conditions that enzyme (E), substrate (S) and inhibitor (I) concentrations as well as the [I]/[E] ratio and preincubation time followed the requirements for tight-binding inhibitor assays. Similar approaches were followed to measure the activities of proteases of different catalytic types, like pepsin, papain, trypsin and subtilisin [45, 46, 47, 48]. All assays were performed in triplicate at 25 °C in a multiplexed manner. For 96-well assays an iEMS spectrophotometer reader/dispenser FM (Labsystems, Finland) was used with a final reaction volume of 250 μL. For cuvette assays, a Cary 400 Bio spectrophotometer (Varian Inc., Palo Alto, CA, USA) spectrophotometer was used with a final reaction volume of 1 ml. The reactions were followed at 5 s intervals for 5 min and recorded as initial velocities. In the protease inhibition assays, mixtures of activity buffer, biological sample and enzyme were preincubated at 25 °C for 10min, before substrate addition. The assay conditions were as follows: for CPA-like enzymes, 7.0nM CPA, 0.1mM AAFP substrate in 20mM Tris-HCl pH 7.5, 500mMNaCl, 1% v/v dimethyl sulfoxide (DMSO), 0.05% w/v BRIJ-35 was used. For CPB-like enzymes, CPB 3.0nM CPB, 0.1mM AAFA substrate and activity buffer of 20 mM Tris-HCl pH [50].
The Ki values of natural and recombinant NvCI against bCPA1, hCPA1, hCPA2, rat CPA3, hCPA4, hCPB1, bTAFI, hTAFI, hCPD and hCPZ were determined by measuring the enzymatic residual activity (Vi/V0 = a) at different inhibitor concentrations and using a fixed enzyme and substrate concentrations as described above, where vi and v0 are the fraction of enzymatic activity in the presence and absence of inhibitor, respectively, in terms of initial velocities. The determination of Ki values was carried out on equilibrium conditions ([E0]/Ki ≤ 10), using a previously determined preincubation time of 15 min, required to establish enzyme-inhibitor equilibrium. Working temperature was 37 °C. The best estimates of Ki values were obtained by fitting the experimental data to the equation for tight-binding inhibitors by non-linear regression using the GraphPad Prisma 5 software (GraphPad Software, Inc., San Diego, CA, USA) at p < 0.05. The real Ki values against each of these A/B-type MCPs were calculated according to the equation described by Morrison and Copeland [19, 20].

Ki: 9.7 ± 1 pM
Substance: NvCI: 53-residue, three-disulphide proteinaceous metallocarboxypeptidase inhibitor from the marine snail Nerita versicolor; major isoform; UniProt P86912 (FHVPDDRPCINPGRCPLVPDATCTFVCKAADNDFGYECQHVWTFEGQRVGCYA; disulfide (positions not given here); also: three disulphides, pairing not given here; UniProt P86912 1-53, looked up)

From PMC6780499, “Characterization, Recombinant Production and Structure-Function Analysis of NvCI, A Picomolar Metallocarboxypeptidase Inhibitor from the Marine Snail Nerita versicolor” (Marine Drugs, 2019)
